# In patent US7101851 (dated 2006):
# Values joined by “and” are separate entries in the source; they are usually repeats but may differ in a detail not shown here. Equal entries are not always repeated. Where no end group is shown, it is not given here.
# What was measured:
# [1] = biological target: T1, extracellular domain of the alpha subunit of the human FcεRI (aa 1-176) (human, UniProt P12319 26-201); assay: competitive phage ELISA on FcεRI (FIG. 2)
# T1 construct: range 1-176; also called soluble FcεRI; baculovirus-derived FcεRI
# T1 sequence (looked up): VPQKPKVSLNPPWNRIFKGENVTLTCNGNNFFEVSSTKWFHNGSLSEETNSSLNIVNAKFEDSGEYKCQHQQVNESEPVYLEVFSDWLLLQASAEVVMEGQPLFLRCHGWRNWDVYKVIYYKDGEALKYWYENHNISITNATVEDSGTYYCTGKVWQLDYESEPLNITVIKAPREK
# Description: Phage ELISA assays were carried out as described (Lowman, 1998, supra), using Nunc Maxisorp™ plates coated with a 2 μg/mL solution of baculovirus-derived FcεRI. Peptide-phage were pre-incubated for 5–10 min with serial dilutions of receptor, then added to the receptor-coated plate. After incubation for 1 h at room temperature, the plates were washed and an anti-phage HRP-conjugated antibody (Pharmacia) was added. After further incubation for 20 min, plates were again washed and developed using the substrate OPD (Sigma). Optical density at 492 nm was read and plotted as a function of FcεRI concentration to determine an $IC50$ of inhibition by each peptide-phage variant.
# These libraries were sorted for FcεRI binding as described above. […] The "linker region" (underlined) of the peptide was randomized in this library.
# [2] = biological target: T1, extracellular domain of the alpha …; assay: competitive phage ELISA on FcεRI (FIG. 1)
# FcεRI-IgG [3] = biological target: T2, FcεRI-IgG (UniProt P12319 26-205); assay: competitive phage ELISA: g3 peptide-phage on immobilized FcεRI-IgG, soluble FcεRI-IgG titrated
# T2 construct: extracellular domain; Produced from CHO cells (Genentech); also called FcεRI-Fc; bivalent fusion protein of the extracellular domain of FcεRI and the Fc domain of IgG; not shown: Fc domain of IgG
# T2 sequence (looked up): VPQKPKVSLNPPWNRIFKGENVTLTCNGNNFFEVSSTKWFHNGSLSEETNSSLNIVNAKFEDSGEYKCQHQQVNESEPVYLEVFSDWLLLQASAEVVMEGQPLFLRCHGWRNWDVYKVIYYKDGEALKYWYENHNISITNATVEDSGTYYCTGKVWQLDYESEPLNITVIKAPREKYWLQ
# Description: (§1) This oligonucleotide was annealed with a g3 single stranded DNA phagemid template. The mutagenesis reaction was transformed into XL-1 Blue *E. coli* and plated on LB-carb+ agar plates. Individual colonies were propagated in 5 mL of 2YT broth, tetracycline, carbenicillin and VCSM13 helper phage (Stratagene). Single stranded DNA was isolated from the purified phage particles and sequenced to confirm the insertion of the phage peptide sequence. 25 mL preparations of g3 phage clones were propagated overnight and purified by PEG precipitation. After resuspension of the phage pellet in 1.0 mL of PBS, it was serially diluted 1/3 and incubated with immobilized FcεRI-IgG 2 ug/mL in a 96 well Maxisorp microtiter plate for 1 hour at room temperature. The wells were washed 10× with PBST then incubated with 100 uL of anti M13 phage HRP as described above. An OD(492) value corresponding to less than 50% binding was selected and the purified phage clones were diluted to yield this normalized level of signal. […] The mixture was then transferred to 96 well microtiter dishes containing immobilized FcεRI-IgG. After a 1-hour incubation period, the plates were washed 10 times, incubated with anti M13-HRP conjugated antibody and developed with OPD as described above.
# In addition, stepwise N-terminal and C-terminal truncations of the peptide sequence were constructed. All constructs were made by designing oligonucleotides corresponding to the desired substitution or truncation, with an additional 18 bp of DNA overlapping the peptide or g3 phage DNA sequence. The phage clones were propagated overnight following infection in XL-1 Blue *E. coli*. Purified phage preparations were titered and assayed for binding to immobilized receptor. FcεRI-IgG competition assays were performed as described above.
# FcεRI-IgG [4] = biological target: T2, FcεRI-IgG; assay: competitive phage ELISA; reference of the N-terminal truncation series
# Description: as §1
# (§2) In addition, stepwise N-terminal and C-terminal truncations of the peptide sequence were constructed. […]
# FcεRI-IgG [5] = biological target: T2, FcεRI-IgG; assay: competitive phage ELISA; reference of the C-terminal truncation series
# Description: as §1, §2
binder,measurement,setting,value
IVCPRLCYELDYELCPDVCYV (not shown: M13 g3p display) [phage clone IVCPRLCYELDYELCPDVCYV from the IGE120-phage library (NBO895-619D)],fold improved affinity over IGE120,[1],~2 fold
VQCPHFCYVGGKALCPDVCYV (not shown: M13 g3p display) [IGE122-phage VQCPHFCYVGGKALCPDVCYV],binding result,[2],binds
"NLPRCTEGPWGWVCMAAD (not fully specified (bridges); cysteine pairing not given here, Monovalent g3p phage display; not shown: fused to M13 gene-3 protein (g3p) on phage) [g3c.42 peptide-phage]",IC50,FcεRI-IgG [3],5.6 nM and 3.1 nM
same,Relative (IC50) (fold weaker),FcεRI-IgG [4],1 fold
same,Relative (IC50) (fold weaker),FcεRI-IgG [5],1 fold
